For experiment [1], the target named is T1, C−反応性タンパク(CRP), ヒトCRP抗原 (human, UniProt P02741 19-224).
T1 sequence (looked up): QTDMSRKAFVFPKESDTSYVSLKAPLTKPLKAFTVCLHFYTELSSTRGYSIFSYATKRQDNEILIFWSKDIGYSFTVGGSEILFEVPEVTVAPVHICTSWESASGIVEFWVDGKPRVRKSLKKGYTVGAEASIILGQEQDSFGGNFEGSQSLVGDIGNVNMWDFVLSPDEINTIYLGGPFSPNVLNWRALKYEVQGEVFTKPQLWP
Nature of the experiment: phage ELISA on plate-coated CRP, detected with HRP/anti-M13. In general terms: In an ELISA, binding on a coated surface is turned into a signal by an enzyme label.

Another experiment addresses T2, Protein A (Staphylococcus aureus, UniProt P38507 37-477).
T2 construct: also called プロテインA; Staphylococcus aureusが産生するProtein A
Nature of the experiment: immunochromatography test strip, His20 as capture and as gold-colloid label; samples of Protein A and S. aureus cell suspensions.

In experiment [2] the target is T1, C−反応性タンパク(CRP), ヒトCRP抗原. Nature of the experiment: ELISA of His-tag purified scFv on CRP.

B1: 陽性クローン株No.20のファージ抗体 (scFv No.20 displayed on M13 phage) (scFv)
scFv: MAQVKLPESGAELVKPGASVKLSCTPSGFNIKDTYIHWVRQRPGQGLEWIGRIDPANGHTRYAPKFQGKATLTADASSNTAYLHLSSLTSEDTAVYYCPRIVWYSGGYAMDYWGQGTTVTVSSGGGGSGGGGSGGGGSDIELTQSPSSMYASLGERVTITCKASQDINSYLSWFQQKPGKSPKTLIYRANRLVDGVPSRFSGSGSGQDYSLTISSLKYEDMGIYYCLQYDEFPLTFGGGTKLEIKRAA
notes: not shown: C-terminal fusion to the phage coat protein from phagemid pCANTAB5E; not spelled out
Regarding B1, the binding result with C−反応性タンパク(CRP), ヒトCRP抗原 [1] is “binds”.

B2: 抗CRPscFv抗体No.20 (His-tagged scFv, His20) (scFv)
scFv: MAQVKLPESGAELVKPGASVKLSCTPSGFNIKDTYIHWVRQRPGQGLEWIGRIDPANGHTRYAPKFQGKATLTADASSNTAYLHLSSLTSEDTAVYYCPRIVWYSGGYAMDYWGQGTTVTVSSGGGGSGGGGSGGGGSDIELTQSPSSMYASLGERVTITCKASQDINSYLSWFQQKPGKSPKTLIYRANRLVDGVPSRFSGSGSGQDYSLTISSLKYEDMGIYYCLQYDEFPLTFGGGTKLEIKRAA
notes: Mouse scFv (VH-(G4S)3 linker-VL) from an immune phage library, expressed in E. coli HB2151 and purified by the His tag; also called No.20抗体; His20 scFv抗体; not shown: C-terminal 6x histidine tag added by a standard method
B2: the binding result with Protein A was “no binding”.

B3: 陽性クローン株No.40のファージ抗体 (scFv No.40 displayed on M13 phage) (scFv)
scFv: MAQVKLQQSGAEVVKPGASVKLSCKASGYTFIFYHIYWVKQRPGQGLEWIGGINPRSGGTNLNEKFKSKATLTVDKSSSTAYMQLNGLTSEDSAFYYCTRSGTTYDYALDYWGQGTTVTVSSGGGGSGGGGSGGGGSDIELTQSPAIMAASLGQKVTMTCSASSSMSSSYLHWYQQKSGASPKPLIHRTSTLASGVPARFSGSGSGTSYSLTISSVEAEDDATYYCQQWSGYPLTFGGGTKLEIKRAAA
notes: as for B1
As for B3, the binding result in the experiment with C−反応性タンパク(CRP), ヒトCRP抗原 [1] is recorded as “binds”.

B4: 抗CRPscFv抗体No.40 (His-tagged scFv, His40) (scFv)
scFv: MAQVKLQQSGAEVVKPGASVKLSCKASGYTFIFYHIYWVKQRPGQGLEWIGGINPRSGGTNLNEKFKSKATLTVDKSSSTAYMQLNGLTSEDSAFYYCTRSGTTYDYALDYWGQGTTVTVSSGGGGSGGGGSGGGGSDIELTQSPAIMAASLGQKVTMTCSASSSMSSSYLHWYQQKSGASPKPLIHRTSTLASGVPARFSGSGSGTSYSLTISSVEAEDDATYYCQQWSGYPLTFGGGTKLEIKRAAA
notes: Mouse scFv (VH-(G4S)3 linker-VL) from an immune phage library, expressed in E. coli HB2151 and purified by the His tag; also called No.40抗体; not shown: C-terminal 6x histidine tag added by a standard method
Turning to B4, the binding result in the experiment with C−反応性タンパク(CRP), ヒトCRP抗原 [2] is listed as “binds”.

The record behind these values is patent JP2008058208A (dated 2008).
